Test results from patent US20240269276A1 (HARBOUR BIOMED SHANGHAI, published 2024).

Legend:
[1] = target: T1, human CD73 on CHO-K1 cells overexpressing human CD73 (human, UniProt P21589 27-549); test: flow cytometry on CHO-K1 cells overexpressing human CD73 (CHO-K1-hCD73) [continued) D]
T1 construct: whole, on cells; also called CHO-K1-hCD73
T1 sequence (looked up): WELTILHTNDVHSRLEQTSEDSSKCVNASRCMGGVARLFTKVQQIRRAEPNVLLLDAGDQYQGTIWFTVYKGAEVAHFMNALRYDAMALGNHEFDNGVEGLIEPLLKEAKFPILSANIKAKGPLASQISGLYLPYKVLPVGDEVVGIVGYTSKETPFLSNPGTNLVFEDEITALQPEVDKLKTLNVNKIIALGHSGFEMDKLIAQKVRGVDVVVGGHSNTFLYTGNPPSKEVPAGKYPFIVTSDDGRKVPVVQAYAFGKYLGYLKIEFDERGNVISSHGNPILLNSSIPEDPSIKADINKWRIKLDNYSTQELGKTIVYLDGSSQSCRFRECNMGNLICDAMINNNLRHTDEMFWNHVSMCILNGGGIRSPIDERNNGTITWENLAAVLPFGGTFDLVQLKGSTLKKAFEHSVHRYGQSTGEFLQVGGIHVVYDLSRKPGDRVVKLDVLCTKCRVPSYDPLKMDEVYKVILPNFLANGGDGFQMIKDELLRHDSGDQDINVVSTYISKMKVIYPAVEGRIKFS
Procedure: (§1) In order to investigate the binding activity of the CD73×PD-L1 bispecific antibody to human CD73 and PD-L1, the binding experiment at the cellular level was performed using CHO-K1 cell strains overexpressing human CD73 or PD-L1 (CHO-K1-hCD73 or CHO-K1-hPD-L1). Briefly, the CHO-K1-hCD73 and CHO-K1-hPD-L1 cells were digested and resuspended in an F-12K complete medium, and the cell density was adjusted to 1×10⁶ cells/mL. The cells were seeded in a 96-well V-bottom plate (Corning, #3894) at 100 μL/well, followed by the addition at 100 μL/well and centrifugation at 500 g at 4° C. for 5 min, and then the supernatant was discarded. Antibodies were 3-fold diluted to a maximum final concentration of 50 nM, and a total of 8 concentrations were set. 100 μL of the diluted antibodies was added to the cells, and the cells were incubated away from light at 4° C for 1 h. Thereafter, the cells in each well were rinsed twice with 100 μL of pre-cooled PBS, and centrifuged at 500 g at 4° C. for 5 min, and then the supernatant was discarded. Then 100 μL of a fluorescent secondary antibody (goat anti-human IgG (H+L) secondary antibody, Alexa Fluor® 488 conjugate, Invitrogen, #A11013, diluted at the ratio of 1:1000) was added to each well. […] Finally, the cells in each well were resuspended in 200 μL of pre-cooled PBS, and the fluorescence signal values were read using a BD FACS CANTOII.

[2] = target: T1, human CD73 on CHO-K1 cells …; test: flow cytometry on CHO-K1 cells overexpressing human CD73 (CHO-K1-hCD73)
Procedure: In order to investigate the binding activity of the CD73×PD-L1 bispecific antibody to human CD73 and PD-L1, the binding experiment at the cellular level was performed using CHO-K1 cell strains overexpressing human CD73 or PD-L1 (CHO-K1-hCD73 or CHO-K1-hPD-L1). Briefly, the CHO-K1-hCD73 and CHO-K1-hPD-L1 cells were digested and resuspended in an F-12K complete medium, and the cell density was adjusted to 1×10⁶ cells/mL. The cells were seeded in a 96-well V-bottom plate (Corning, #3894) at 100 μL/well, followed by the addition at 100 μL/well and centrifugation at 500 g at 4° C. for 5 min, and then the supernatant was discarded. Antibodies were 3-fold diluted to a maximum final concentration of 50 nM, and a total of 8 concentrations were set. 100 μL of the diluted antibodies was added to the cells, and the cells were incubated away from light at 4° C for 1 h. Thereafter, the cells in each well were rinsed twice with 100 μL of pre-cooled PBS, and centrifuged at 500 g at 4° C. for 5 min, and then the supernatant was discarded. Then 100 μL of a fluorescent secondary antibody (goat anti-human IgG (H+L) secondary antibody, Alexa Fluor® 488 conjugate, Invitrogen, #A11013, diluted at the ratio of 1:1000) was added to each well. The plate was incubated away from light at 4° C. for 30 min. The cells in each well were then rinsed twice with 200 μL of pre-cooled PBS and centrifuged at 500 g at 4° C. for 5 min, and then the supernatant was discarded. Finally, the cells in each well were resuspended in 200 μL of pre-cooled PBS, and the fluorescence signal values were read using a BD FACS CANTOII.

[3] = target: T1, human CD73 on CHO-K1 cells …; test: flow cytometry on CHO-K1 cells overexpressing human CD73 (CHO-K1-hCD73) [continued) C]
Procedure: as §1

B1: PR000846 (antibody, human IgG1, kappa, L234A L235A, V domains shown)
VH: QVQLVESGGGVAQPGRSLSLSCAASGFTFSDYGMHWVRQAPGKGLEWVALIWYDASFEYYADSVKGRFSISRDNSKNTLYLQMNSLRAEDTAVYYCVRDAQWGSRLDYWGQGTLVTVSS
VL: KIVMTQSPATLSLSPGERATLSCRASQSVSRYLAWYQQKPGQAPRLLIYDASNRATGIPARFSGSGSGTDFTLTISSLEPEDFAVYYCQQRSNWIFTFGPGTKVDIKR
notes: Anti-CD73 IgG (human IgG1 constant region, human Ig kappa), PTM removed; also called anti-CD73 antibody PR000846; parent monoclonal antibody PR000846
EC50 [1]: 0.737 nM
EC50 [2]: 0.352 nM
EC50 [3]: 1.73 nM
